Molecular target: M6P receptor (M6PR)
Test: SPR (BIACORE T200), M6PR amine-coupled on CM5 chip, conjugate 200 nM to 12.5 nM, 1:1 Langmuir model

imiglucerase long-acting conjugate (from UniProt P04062 40-536; P01861 107-327)
M6PR Binding Affinity (relative to imiglucerase = 100%): 22%
